Several values for one entry are separate records, joined by “and”; a condition that tells them apart may be missing. Equal entries are not always repeated.
Target: SARS-CoV-1 스파이크 단백질 (SARS-CoV-1 spike protein, SP) (SARS-CoV-1, UniProt P59594 14-1195)

B1: Anti-SP2에서 발현된 Fv-변이체 (expressed Fv-variant of Anti-SP2, fusion protein with sfGFP and His-tag) (other)
chain: EVQLVESAAEVRRPGASVKITCKASGYSFSTYGIQWMRQAPGQRPEWLGWIHAGTGGTKYSRKFQGRITITRDTSANTVYLDLNSLTSEDTAVYYCARCLRQAGTADDVWGQGTTVTVSS
Kd: 0.0162 µM and 0.0422 µM

B2: Anti-SP1에서 발현된 Fv-변이체 (expressed Fv-variant of Anti-SP1, fusion protein with sfGFP and His-tag) (other)
chain: EVQLVESAAEVRRPGASVKITCKASGYSFSTYGIQWMRQAPGQRPEWLGWIHAGTGGTKYSRKFQGRITITRDTSANTVYLDLNSLTSEDTAVYYCARGRTTGNDRPDYWGQGTTVTVSS
Kd: 0.0417 µM and 0.0141 µM

— KR20240072325A (dated 2024)
